B1: HDV Ribozyme (parent)
chain: GGCCGGCAUGGUCCCAGCCUCCUCGCUGGCGCCGGCUGGGCAACAUUCCGAGGGGACCGUCCCCUCGGUAAUGGCGAAUGGGACCCA

Variants of: B1
Test: self-cleavage, relative activity (ratio to wild type); higher = more cleavage; co-transcriptional

Row | Variant | self-cleavage
1 | G31C G35U | 0.158
2 | G31C G35C | 0.0978
3 | G31C C66G | 0.443
4 | G31C C66U | 0.292
5 | G31U C86U | 0.453
6 | C30U C86A | 0.923
7 | C30U C86U | 0.795
8 | C30U C86G | 0.733
9 | G31A U37A | 0.128
10 | C30A G53U | 0.443
11 | G31A G59U | 0.383
12 | G31A G59A | 0.531
13 | C30U U79G | 0.128
14 | G31C A51C | 0.475
15 | G31C A51G | 0.341
16 | C30G G54A | 0.0811
17 | G31C G81A | 0.0791
18 | C32A C62G | 0.0489
19 | C32A C62U | 0.341
20 | C30G C66U | 0.185
21 | C32G G50U | 0.0268
22 | G31A U60A | 0.49
23 | G31A U60G | 0.642
24 | C30U C63A | 0.466

Row | Variant | self-cleavage
25 | C30U C63U | 0.581
26 | C32A A83G | 0.152
27 | C30G G59U | 0.0744
28 | C30G G59C | 0.108
29 | C30G C86A | 0.241
30 | G31U G55C | 0.314
31 | G31C C61G | 0.259
32 | C30U A45G | 0.796
33 | C30G G68C | 0.0906
34 | G31A A78G | 0.0978
35 | C30A U47A | 0.486
36 | C30A U47G | 0.682
37 | C32A A87U | 0.183
38 | C32A A87G | 0.165
39 | C32G A70C | 0.38
40 | G31U G39A | 0.0361
41 | G31U G39C | 0.166
42 | G31C U47A | 0.467
43 | G31U C75A | 0.0665
44 | C32G C48A | 0.0378
45 | C32G C48G | 0.0437
46 | G31U A70C | 0.161
47 | C32G G53A | 0.205
48 | C30G A43G | 0

Row | Variant | self-cleavage
49 | G31U G50U | 0.415
50 | C32A G39A | 0.0563
51 | G31C U72A | 0.166
52 | G31C U72C | 0.262
53 | C30U A70U | 0.782
54 | C32G C66U | 0.162
55 | C30U C49U | 0.891
56 | C32A U79A | 0.121
57 | C30U C75U | 0.157
58 | G31C C85G | 0.341
59 | G31C C41G | 0.269
60 | G31U A51C | 0.462
61 | C30G A45C | 0.0997
62 | C30G A45G | 0.0563
63 | G31U G67A | 0.369
64 | G31C C33U | 0.123
65 | C32G A45G | 0.0811
66 | C32G A45U | 0.142
67 | C32A C84U | 0.0536
68 | C32G G34C | 0.0475
69 | G31U C66A | 0.45
70 | G31U C66U | 0.437
71 | C30G G31A | 0.133
72 | G31U G34C | 0.117

Row | Variant | self-cleavage
73 | C32G C84U | 0.0354
74 | C32G C84A | 0.0386
75 | C30G C36A | 0.0554
76 | C30G C36U | 0.0443
77 | C30G C36G | 0.0594
78 | C32G A43C | 0.0536
79 | C32G A43U | 0
80 | C30G C48G | 0.119
81 | C30U G68C | 0.575
82 | C30A C86A | 0.591
83 | G31A G50C | 0.521
84 | C32A A45C | 0.0875
85 | G31A C63U | 0.606
86 | G31A G38U | 0.0702
87 | G31A G38A | 0.14
88 | C32G A83U | 0.166
89 | C30G U72A | 0.0536
90 | C30G U72C | 0.0594
91 | G31A A87U | 0.442
92 | C32A G40A | 0.242
93 | C30U U47C | 0.401
94 | G31C A43C | 0
95 | G31C A43U | 0.135
96 | G31C A45U | 0.0437

Row | Variant | self-cleavage
97 | C30U C33G | 0.266
98 | G31U G80C | 0.0449
99 | C30G C75G | 0.0997
100 | C30G C75U | 0.0755
101 | G31U C85G | 0.481
102 | C30G A77U | 0.0665
103 | G31C U46A | 0.256
104 | G31C U46G | 0.266
105 | C30G A51C | 0.142
106 | G31U G76C | 0.479
107 | C32G C75G | 0
108 | C32G C75U | 0.0468
109 | C32G G73U | 0.0692
110 | C32G G73A | 0.0615
111 | C32G G40U | 0.0791
112 | G31C G40A | 0.406
113 | C30A G82C | 0.193
114 | G31A G35U | 0.102
115 | G31A G35C | 0
116 | C30U C85G | 0.0978
117 | C30A G55A | 0.472
118 | C30A G38A | 0.219
119 | C32G C49U | 0.0811
120 | C32A G67U | 0.232

Row | Variant | self-cleavage
121 | C32A C44G | 0.107
122 | C32A C44A | 0.364
123 | C32A C44U | 0.0875
124 | C32A A71U | 0.222
125 | C30A G52U | 0.532
126 | C30A G74C | 0.158
127 | C30G U60G | 0.0386
128 | C30G A56C | 0.0415
129 | G31U C62A | 0.602
130 | C32A C48G | 0.0462
131 | C30A G81C | 0.201
132 | C30G C85U | 0.0302
133 | C30G C85G | 0.0405
134 | C32G G76A | 0.271
135 | C32A G35U | 0.157
136 | G31U U47C | 0.383
137 | G31U A42G | 0.0923
138 | C30U G59A | 0.878
139 | C30A C64A | 0.536
140 | C30A C64U | 0.554
141 | G31U C61G | 0.332
142 | C30U A43U | 0.0652
143 | C32A C86U | 0.147
144 | G31A C66A | 0.546

Row | Variant | self-cleavage
145 | G31A C66G | 0.379
146 | G31C G34U | 0.191
147 | C30G G80U | 0.0912
148 | C32A | 0.21
149 | C32G | 0.103
150 | C30U G31A | 0.168
151 | C30A C66A | 0.582
152 | C30G A42G | 0.0415
153 | C32A C33U | 0.0779
154 | C30U G55C | 0.523
155 | G31U G52U | 0.492
156 | C30A U69C | 0.623
157 | C30A U37G | 0
158 | G31A C61A | 0.554
159 | C32G G52U | 0.198
160 | C32G G52A | 0.254
161 | G31C G73C | 0.155
162 | C32A U47C | 0.0462
163 | G31C C84U | 0.295
164 | C30U A87G | 0.699
165 | C30U A87U | 0.636
166 | G31U G74U | 0.136
167 | C30G C61U | 0.026

— the RNAGym collection of RNA variant scans (doi:10.7554/elife.80360)
